{"source": "the DeepSol protein solubility set"}
{"assay": "soluble on expression in E. coli; label from the status in PepcDB or PDB records"}
{"sequence": "ATDTLANEDCFRHESLVPNLDYERFRGSWIIAAGTSEALTQYKCWIDRFSYDDALVSKYTDSQGKNRTTIRGRTKFEGNKFTIDYNDKGKAFSAPYSVLATDYENYAIVEGCPAAANGHVIYVQLRMTLRRFHPKLGDKEMLQHYTLDQVNQNKKAIEEDLKHFNLKYEDLHSTCH", "soluble on expression in E. coli": "soluble"}
{"sequence": "MSLTLSPTTIFPARCIHTMNATQPRATHVAVREGRILDVGDASLREAWPDAVVDSRFSDKVLLPGLIEGHSHLLEGGMWRFVYVGYYDRRGPDGRVWPGLKSYEAVIERLRAAEALMPDAQAPLLAWGFDPIHFGGQRMTTCHLDQVSKTRRIVVLHASVHLLNVNTAMLRQADIHAGLRIDGIVRAADGTPTGELQEFAAMFMVFKHIGNVFFDAGQSEEGIRNFAKIAQQAGVTTATDLSHALADDMVDNLVRVTGEDDFPLRLVAAYSPMRDMNGRSVDRVVRATQRNTAKLHFGLVKLVIDGSIQGYTARVRWPGYHNGAPNGMWIIAPQQLRELLMEYHKAGLTIHIHTNGDEATEVAMDALESVLAEYPRWDHRHTLQHCQMADAAQFRRMARLGMCANLFANHLYFWGDAHYTDTLGPARAFRMNAAKTALQAGVPISLHSDAPITPIGPLFTAWCAVNRVTAGGRILGSQERIPVMDALHAMTLGAAYTLKLDHLIGSIEVGKLADFAVLEADPLEVAPQDLAGIGIWGTVLGGRSFPAPQLSEGHHHHHH", "soluble on expression in E. coli": "soluble"}
{"sequence": "MSLGFHEVRFPASLSFGSVGGPERHTDVVTLANGHEERNTPWAHSRRRYDAGVAMRGLDDIETLIAFFEARQAQLHGFRWKDWSDYKSGPALAEPAYHDQIIAIGDDVTASFPLIKAYRSGEQIYRRPITKPVAGTVRIGLSGDEQQEGVHYEVDTTTGIITFAHPPNEGLEITAGFEFDVPVRFDTDRIQTSVASFQAGDMPNVPVVEIRVEGHHHHHH", "soluble on expression in E. coli": "soluble"}
{"sequence": "MNPKFRSFFSKNAEIFRFSLSENPEIFRFSRHFSMKSFYDIIEIDEIATFDDVKKAYFRFLRKDNRPIYDSWLREQRLRETQGTIGETIELEYGERDVDEYCRKKIPKKNIFSKKKKRFFRTFSNRPNPRHGNLRVLLVLPLSRNPSLLHHHHHPRHPLKKMSSLDESSTKILVLGDSCVGKTSLCHCIAGGGEPPGGGRSFDSTIGATVVMAWHEYRAGTPEQRTELLELWDIGGMVAHRQAAQVFFEGAVGAILVHDLTNKRSEENLATWLTMLDGKPRGAAPKSSKDPAAVALKVDIESCNIPVLIVGTKADLVPHKGPVSYDRYDGLGNANSAISVWKPRNRRKNSKKPMKIGRKLVVEKEKVKKFGRQYLRRGLGFSFSSARWHKEMTEARNVQKSMKMVIFRLFSMGGRN", "soluble on expression in E. coli": "not soluble"}
{"sequence": "LVGDFERELGRLLSPFELEDLQKTLQEDQTDPDIVRAALREAVFNGKTSWNYINAILRNWRREGLTTLRQIEERKQAREDNQMKDLAISDDFKNAMNLWE", "soluble on expression in E. coli": "not soluble"}
{"sequence": "DDAYVERRVPQEMLGGHSQGDELPIHFSRSDAFERLPQPEPIRRRLVRVGSSPVHEERMVHQQIGDLCVGDTVAHARFGIGIIESLEGEGDNAKAEVSFQQVGRKRLLLRFAKLSKVEKDSI", "soluble on expression in E. coli": "not soluble"}
{"sequence": "MTENLLAERHALRWVFLYEFPQICNCNEARRNMCAVLGKNSVTYNTMKFWFEKFTKKNYDLDDKPR", "soluble on expression in E. coli": "soluble"}
{"sequence": "MSFNTIIDWNSCTAEQQRQLLMRPAISASESITRTVNDILDNVKARGDEALREYSAKFDKTTVTALKVSAEEIAAASERLSDELKQAMAVAVKNIETFHTAQKLPPVDVETQPGVRCQQVTRPVASVGLYIPGGSAPLFSTVLMLATPASIAGCKKVVLCSPPPIADEILYAAQLCGVQDVFNVGGAQAIAALAFGTESVPKVDKIFGPGNAFVTEAKRQVSQRLDGAAIDMPAGPSEVLVIADSGATPDFVASDLLSQAEHGPDSQVILLTPAADMARRVAEAVERQLAELPRAETARQALNASRLIVTKDLAQCVEISNQYGPEHLIIQTRNARELVDSITSAGSVFLGDWSPESAGDYASGTNHVLPTYGYTATCSSLGLADFQKRMTVQELSKEGFSALASTIETLAAAERLTAHKNAVTLRVNALKEQA", "soluble on expression in E. coli": "soluble"}
{"sequence": "MKFTVGIAMNPLDQLPALARTAEECGFSSIALPDSLFFMEKQSADYPYTPDGSRMWNEETPWVDPLIAAAAMGAVTSKIEFYTQVLKLGSRNPVLLARQVGSVANLIGNRFGFGVGIGWAPEEFEWCGVPYKKRGARVDEMIDVIKLILGGGMVEYHGEFFDFDRLQMSPAPTKPVPFYVGGHTDVALRRAARVGDGWTSAMIKFDDLVQVIARLRELREEYGRADLPYEIQTVCIDRFGKDGYAELADAGVTDTIVVPWVFDGIGFDGPLEAKQDSLRKFADQYIG", "soluble on expression in E. coli": "not soluble"}
{"sequence": "MDLSEDQIRGLPHHELLGHFLQMREEFNEFQTSSAEIEKMMDSELDDLKTQLKKAETRVQQMTTEQIRNKDRQDDSRVQFAQVEEQLRRENSHLHEQCESQRERIRKLEQRNDVLETSERNKEYLASDLGSKLDHAIEKIAMLESELYERQVAAEEMHRLREEQLRTTERPRLIVEPLRNDPEILPDEPSPGPSKEEFKMSSEDVFMEDVQHHEDVRMEETIAKIDEVRIDDNKNIQEKSQRVSTGTGAGACINRIVKDLMTKVERLDSILSTIRVSNNSSNNNSSHLTTTRA", "soluble on expression in E. coli": "not soluble"}
{"sequence": "MAHHHHHHMNVINRMLSRGHVAASASLPIKERPFPVNYGLSTFKWHLDSRKPSKAILLHDLFGSSAYWQMLLHESLGRLPCSGLTPLVPLELFAVDFRGHNHSKSLPCPEEGRAFTMACAADIMLLQQQVLRADAKLVGIGFGALVACQAALHSPESGIDSLVLIVNGPSDLLACEPARYSLPSFISDIPKEISSVADLEHHLHKRVPNEAERALILSTVEQREGTVGFKFNETLFQFRGPLCGFSDVGPENIFTKPVTVIQCGSEEFSGEAKSDFMKHFPKAKFVLFEGDRSGGISGLSAQGPAVTRTLLEAMELLGETTGGEE", "soluble on expression in E. coli": "not soluble"}
{"sequence": "MGSDKIHHHHHHMDQSLFQNGNFQPLASRMRPQTLDEFVGQTHLLGKDKVLSNLIEHDEISSMIFWGPPGVGKTTLARIIARRTKAQFVTFSAVTSGIKEIKQVMKEAEQNRELGQKTIVFVDEIHRFNKAQQDAFLPYVERGSIILIGATTENPSFEVNAALLSRTRVFVLHGLTSAELVDLLQRALKDPRGYGLQKVKIGKKLLAQIADFANGDARIALNTLEMAVTNAETKGGVITVTQADVAQLLTKKALLYDKNGEEHYNLISALHKSMRNSDVDAAIYWLARMLEAGEDPLYVARRLVRFASEDIGMADSRALEITIAVYQACQFIGMPECTVHLTHAVTYLALAPKSNALYTAYEGAKKDATETLAEPVPLQIRNGVTDLMQDLGYGKDYQYAHNTKDKLTTMQTMPDNLIGKTYYHPTTQGSEAKVKERLEQIKAWHAQHPDPDSPKTKKKS", "soluble on expression in E. coli": "not soluble"}
{"sequence": "MGSDKIHHHHHHMIWNIDYFCNLRCKSCNAWQGKIFFPEDQIDKHLQEMKNNGIKIVSVTGGEPTLNKNVVDIIRKLKENHFFTHIATNGTNPYVLRKLYPYLDAVTISLDSNIPEEHNAYRGLKIFDTVVSNIKEAKSKVKIVTANMLVTNFNYFKVGEIADFANNELGVPLSMCFPEQDAYYFQDFQVTNDMIRQAFSYAYENYHKHVFGNMRSYYKEAVDFIDGKGSRACKAGQEIFYTDYRGKVHPCFEHVEVVLNKKPTWDIYDNKCHKCFTECFLEPSIDHTFEAASLIGKIWWFNHVKRRDIKYIETKRPKQVPS", "soluble on expression in E. coli": "not soluble"}
{"sequence": "FGKVGYATNLTYTANRNKIMKMVHDYKNPSDGSLFSITELTLQDKGGVYLREKDAIGDVYVKGILARGKDGKLIEEEGGYKVDRSQRIKIGSVNPDFSIGWRHNVTWNNITLDLLFNGRFGGIVTSSTQAFLDDYGVSKDTYKARQNGGVWVNGTQYDAEKYYTTIGGEQLMAYYAYKATNIRLQEASLSYTLPGKWFGNVINRLTVSAIGRNLWMIYNKAPFDPEMTSSTGTYNRGDVFMPPSLRSVGFSVKIEL", "soluble on expression in E. coli": "not soluble"}
{"sequence": "GSDITSLYKKAGSEMNGPRCPVQTVGQWLESIGLPQYENHLMANGFDNVQFMGSNVMEDQDLLEIGILNSGHRQRILQAIQLLPKMRPIGHDGYHPTSVAEWL", "soluble on expression in E. coli": "soluble"}
{"sequence": "MGSDKIHHHHHHMETQTRKHSEQKHNSFNNSLEVWKLCFSYPDFVFVSCFNNSLEVWKPGKTLTYDSATNGFNNSLEVWKHSSEALFKAEFRRFNNSLEVWKHHRARRRTLLLPGFNNSLEVWKLIDFKYDSSHYSGFNNSLEVWKPFVLELPDACDCTCFNNSLEVWKPHHRGDSLIRCRVSIIP", "soluble on expression in E. coli": "not soluble"}
{"sequence": "QRDDVTGVQTLAGNLDPTQWTKTKSLSPLSGSLDPLDYTQRLALIPQRHFSGAGDEMIPTELAERYNRLLGNTACSQLIIVAGATHETGWEEAWKVWRGL", "soluble on expression in E. coli": "not soluble"}
{"sequence": "GMLESTKQFLKKYNINDRVLKLYETAMNDIQNQFKILDDIREFNQLKVLNAFQEERISEAHFTNSSGYGYGDIGRDSLDAVYARVFNTESALVRPHFVNGTHALGAALFGNLRPGNTMLSVCGEPYDTLHDVIGITENSNMGSLKEFGINYKQVDLKEDGKPNLEEIEKVLKEDESITLVHIQRSTGYGWRRALLIEDIKSIVDCVKNIRKDIICFVDNCYGEFMDTKEPTDVGADLIAGSLIKNIGGGIAPTGGYLAGTKDCIEKTSYRLTVPGIGGECGSTFGVVRSMYQGLFLAPHISMEALKGAILCSRIMELAGFEVMPKYDEKRSDIIQSIKFNDKDKLIEFCKGIQTGSPIDSFVSCEPWDMPGYTDQVIMAAGAFIQGSSIELSADAPIREPYIAYLQGGLTFDHAKIGILIALSRIVK", "soluble on expression in E. coli": "soluble"}
{"sequence": "MSLFPGDIEELARRIITDFTPLGLMVSTAESCTGGLIAGALTEIAGSSAVVDRGFVTYTNDAKRDMLGVGTETLTTFGAVSRQTALQMAHGALYRSRANFAVAVTGIAGPGGGSAEKPVGLVHLATKARNGNVLHHEMRYGDIGRTEIRLATVRTALEMLIALNQAGSV", "soluble on expression in E. coli": "soluble"}
{"sequence": "MCTSKPKFIPLPEQQSLCSLPNSGCCHVDVKVGRSKWEKRVAVLVQVEGEPDYKIYIYTKPLIGQIYPLNELKKREVKCEKDKVFLVNLASEKGEKITFKATGNNGSIWVAALMSGTFTSPIHETHGHTGGTGTDGTTSNIESDLKEKPDTNVYTGSREGYVPPPAKEGSGSGGKKKDMNNVAVKPDEKKKDSGRKLKKTVSKTITKLSVSESKKKTEKKIAATQKTQEFPIPKTVDEAHTNSEPDGDPLKLKKTITDGNELSLKGATAPTPQKAKLTTPTSTTPASSLTPSNALTPGNEDKKKMTTDSEEIELHEKKK", "soluble on expression in E. coli": "soluble"}
{"sequence": "MGSDKIHHHHHHMKNFVVTTSHKPDREQVMKAKELAEKLGTIYVSRRRLKEFKVDFYYVVEKNRISIKWPGGEFFFHPSSAILRMRNIRSGQKDYLIESLQPEGNEIVLDTTFGLGSEAILMAAFLPEGKVIGLEGSIHIYTIVKYGMENFETDIRWLKDALKRIELYHANFKEYIRSQPDNSFDVVYCDPMFENPVYESSAMNPLRPFAVYDTVNEEDIEEMLRIAKKKVILKSHVKDSLFKRIRVDELKGSRKSGVLYGVIYKR", "soluble on expression in E. coli": "not soluble"}
{"sequence": "MGSDKIHHHHHHMQSIMPEADYSFLSMDPTMNANTGNKDSLATPSHTPQLQAFCDVVESRRSVRRFTDAPIPDDVLADCLRLAMLAPNSSNLQPWEFYVIDDADKRKRAVKNCMNQNAAKTSARLIAVVARTDVWHDHAKKILREYPDMPVPKKVKDYYNKVVALDFLRGPANVVSVAKWSAIQVVRRIKGPIKSPYYTFEDTKNWATNNTALAAGNLMLALRAHGFDSCPMGGFDEPAMKRLLKLSNHHHIVMMIGAGERADNGVYNTQFRFEQDQFVHYV", "soluble on expression in E. coli": "not soluble"}
{"sequence": "MKTGVTGPYTFGVGLITYLCSKEIYVMEHEYYSGLSLGIMAIIAVKKLGPVIAKWADGEIDKIESEWKEGREAELKVLSDAIEAEKKEQWRADGALLLMEAKKENIALQLEAAFRERAMNVYSEVNRPLDYQVECRHVERRLSQKHMVNWITTNVLASISPQQEKETLNKCIADLSALALRVKSALEHHHHHH", "soluble on expression in E. coli": "not soluble"}
